Data taken from patent publication US5939284A, “Protein phosphatase 1 binding protein, R5” (Smithkline Beecham Corporation, priority 1996, dated 1999).

Tests used:
[1] = biological target: Human PP1g (catalytic subunit of protein phosphatase 1), bacterially expressed (human) (UniProt P36873)
[2] = biological target: PP1g (catalytic subunit of protein phosphatase 1); assay: Protein phosphatase assay: phosphorylase phosphatase activity of PP1; format: biochemical, human; conditions: freshly prepared preparation; 32P-labelled phosphorylase as substrate; preincubated 15 minutes at 30° C.; FIG. 3; read-out: IC50 for inhibition of the phosphorylase phosphatase activity of PP1
Description: Protein phosphatase assays were performed in the absence of divalent cations as described in Cohen et al, (1988), cited above. The catalytic subunit PP1g, described above in Example 2, was diluted in assay buffer to 1.5 U/ml (1.4 nM). Rabbit skeletal muscle glycogen phosphorylase was ^32 P-labelled by phosphorylase kinase to a stoichiometry of 1 mol phosphate per mol subunit as in Cohen et al, Meth. Enzymol. 159:390-408 (1988) and was 10 mM in the assays.
Assays were initiated with 0.01 ml ^32 P-labelled phosphorylase. One unit of activity is the amount of enzyme which catalyses the release of 1 mmol of [^32 P]phosphate per minute.

phosphorylase a = assay: Blot overlay with 32P labelled phosphorylase a; format: binding; conditions: proteins electrophoresed, transferred to nitrocellulose, probed with 32P labelled phosphorylase a; blot not shown

GST-PPP1R5 fusion protein showed an IC50, inhibition of phosphorylase phosphatase activity of PP1 [1] of 100 nM.

For GST-GL fusion protein, the IC50, inhibition of phosphorylase phosphatase activity of PP1 [1] was 100 nM.

B1: GST-GL: GST fusion protein of the rat liver glycogen binding subunit (GL) of protein phosphatase 1, bacterially expressed (protein)
chain: MAVDIEYSYSSMAPSLRRERFTFKISPKLNKPLRPCIQLGSKDEAGRMVAPTVQEKKVKKRVSFADNQGLALTMVKVFSEFDDPLDIPFNITELLDNIVSLTTAESESFVLDFPQPSADYLDFRNRLQTNHVCLENCVLKEKAIAGTVKVQNLAFEKVVKIRMTFDTWKSFTDFPCQYVKDTYAGSDRDTFSFDISLPEKIQSYERMEFAVCYECNGQSYWDSNKGKNYRITRAELRSTQGMTEPYNGPDFGISFDQFGSPRCSFGLFPEWPSYLGYEKLGPYY
For B1, the IC50 [2] was roughly 100 nM and the “Binding of phosphorylase a” value (phosphorylase a) was “bound”.
